Measurements from article PMC8244865, “Recruitment of phospholipase Cγ1 to the non-structural membrane protein pK15 of Kaposi Sarcoma-associated herpesvirus promotes its Src-dependent phosphorylation” (PLoS Pathogens, 2021).

Experiments:
Type in all cases: binding
PLCγ1 SA = assay: GST-pulldown, PLCγ1 SA
Protocol: Fig 2 K15 phosphorylation results in a stronger binding to PLCγ1. (A) An expression plasmid for an S-tagged full length PLCγ1 or the empty vector (EV) were transfected in HEK-293T cells. After 30h cells were lysed and a GST-pulldown assay was performed with GST-fused pK15 CT (WT), the pK15 CT Y^481F mutant (Y^481F) or GST that had been bound to glutathione beads and previously phosphorylated by GST-6xHis Src (+) or left unphosphorylated (-). Bound proteins were analysed by WB using antibodies to the S tag on PLCγ1 and pTyr. (B) Untransfected HEK-293T cells were lysed and a GST-pulldown assay with pre-phosphorylated (+) or unphosphorylated (-) GST-fused pK15 CT WT/Y^481F or GST was performed and analysed by WB as in (A). (C) An expression plasmid for an S-tagged PLCγ1 SA or the empty vector were transfected in HEK-293T cells. […]
(§1) HEK293T cells were washed once with cold PBS 30 hours after transfection, lysed in IP buffer (50 mM Tris pH7.6, 60 mM NaCl, 6.25 mM EDTA, 1% (v/v) glycerol, 0.04% (v/v) NP-40) on ice for 30 minutes, sonicated shortly and cleared by centrifugation for 10 minutes at 20.000g, 4°C. […] Beads were then washed 5 times in 500 μl IP buffer (or for purified proteins IP buffer with 200 mM NaCl), suspended in 10 μl of 5x Laemmli sample buffer (60 mM Tris pH6.8, 24% (v/v) glycerol, 2% (v/v) SDS, 5% (v/v) β-mercaptoethanol, 0.01% Bromphenol Blue) and analysed by western blot.

[1] = tested on: PLCγ1 cSH2 domain (vs nSH2 domain); assay: GST-pulldown, individual SH2 domains; conditions: in vitro phosphorylated; S-tagged individual SH2 domains transfected in HEK 293
Protocol: Fig 3 Contribution of individual PLCγ1 SH2 domains to the interaction with phosphorylated pK15. The pK15 CT fused to GST, its Y^481F mutant, or GST alone were bound to glutathione beads, phosphorylated in vitro (+) or left unphosphorylated (-), and a GST pulldown was performed 32h after transfection into HEK-293T cells of expression vectors for S-tagged full-length PLCγ1 (FL) (A) or PLCγ1 SA (B) containing the indicated mutations. (C) pK15 CT WT, its Y^481F mutant or GST were bound to glutathione beads, phosphorylated in vitro (+) or left unphosphorylated (-), and used for a GST pulldown assay 32h after transfecting HEK 293T cells with expression vectors for S-tagged individual PLCγ1 nSH2 or cSH2 domains. […]
as §1

[2] = tested on: PLCγ1 SA and PLCγ1 tSH2, cSH2 R^694L mutant; assay: AlphaLISA, SA and tSH2 R694L mutant; conditions: phosphorylated; 300 nM each protein
Protocol: (§2) Fig 4 The PLCγ1 cSH2 domain is required for the binding of PLCγ1 to phosphorylated pK15 in vitro and may serve as a dominant-negative inhibitor. GST-fused pK15 cytoplasmic tail WT (A), or its truncated mutant N2 [51] (B), were phosphorylated in vitro by 2xStrep-Src and an AlphaLISA was performed with the indicated His-tagged fragments of PLCγ1. Mean and standard deviation from at least two independent experiments with two technical replicates each are depicted. GST fusion proteins of the N1 (C) or N2 (D) truncation mutants of the pK15 cytoplasmic tail were phosphorylated in vitro by 2xStrep-Src and their interaction with recombinant purified PLCγ1 tSH2 (tandem SH2) or SA (γ-specific array) domains was measured by AlphaLISA in the presence of increasing concentrations (300 nM, 600 nM, 900 nM, 1200 nM) of the purified PLCγ1 cSH2. […] After 48h lysates were collected and analysed by Western blot using an antibody to PLCγ1 pY^783 to assess the level of PLCγ1 phosphorylation. (F) The intensities of the pPLCγ1 bands shown in panel E were quantified by densitometry, normalized to the values obtained with the empty vector (EV) in the presence of pK15, and plotted as relative values. […]
(§3) His-tagged PLCγ1 (SA, tSH2 or the isolated SH2 domains) was incubated at room temperature with GST-tagged K15P or its mutants for 1 hour. […] Emission at 615 nm was detected on BioTek Synergy 2 plate reader.

PLCγ1 nSH2 domain = assay: AlphaLISA, isolated PLCγ1 nSH2; conditions: phosphorylated; 300 nM each protein; domain tested individually
Protocol: as §2, §3

B1: pK15 CT^WT: pK15 cytoplasmic tail fused to GST at its N-terminal end, phosphorylated in vitro by Src (protein)
chain: SQLLNEVELQEVNRDPPNVFGYASILVSGAEESREPSPQPDQSGMSILRVDGGSAFRIDTAQAATQPTDDLYEEVLFPRN
modifications: tyrosine-phosphorylated in vitro by Src; sites not stated for this construct; left off: GST, N-terminal, kept
PLCγ1 SA; in vitro phosphorylated by Src, transfected SA in HEK 293, Western blot
  interaction with PLCγ1 SA (GST-pulldown): bound more strongly to the SA region than the phosphorylated pK15 CT^Y481F mutant
PLCγ1 SA; without prior in vitro phosphorylation by Src kinase
  interaction with PLCγ1 SA, unphosphorylated (GST-pulldown): marginal binding to PLCγ1 SA
[1]
  preference between SH2 domains (GST-pulldown): bound preferentially to the PLCγ1 cSH2 domain compared to its nSH2 domain
[2]
  interaction (AlphaLISA): markedly reduced binding
PLCγ1 nSH2 domain
  interaction (AlphaLISA): not the nSH2 domain
